Data on six molecules can be found in US20050182242A1, “Global analysis of protein activities using proteome chips” (priority 2001, published 2005).

Common to all, as to conditions: liposome binding signal on yeast proteome chip, Cy3-streptavidin detection
The test system of one data set is PI(3,4,5)P3 liposomes. Briefly: Yeast proteome chip probed with PI(3,4,5)P3 liposomes.
The test system of a further data set is PI(4)P liposomes. Nature of the data set: Yeast proteome chip probed with PI(4)P liposomes.
Another data set has as its system PI(3)P liposomes. Briefly: Yeast proteome chip probed with PI(3)P liposomes. The source says:
To identify PI-binding proteins in yeast, liposomes were used as probes because the liposome provides the most relevant physiological condition to assay the interactors. Six types of liposomes were used. Each contains phosphatidylcholine (“PC”) with 1% (w/w) N-(biotinoyl)-1,2-dihexadecanoyl-sn-glycero-3-phosphoethanolamine, triethylammonium salt (biotin DHPE). The biotinylated lipid serves as a label that can be detected by Cy3-streptavidin (21). In addition to PC, the five other liposomes contain either 5% (w/w) PI(3)P, PI(4)P, PI(3,4)P2, PI(4,5)P2, or PI(3,4,5)P3 (FIG. 3A).
The protein-liposome interaction was assayed as follows. Appropriate amounts of each lipid in chloroform were mixed and dried under nitrogen. The lipid mixture was resuspended in TBS buffer by vortexing. The liposomes were created by sonication. Blocked proteome chips were washed three to five times in PBS buffer, and the extra liquid on the glass surface was removed by tapping the slides vertically on a KIMWIPE™. 200 μl of liposome solution was added to the proteome chip and immediately covered by a hydrophobic plastic cover slip (GRACE BIO-LAB™, USA). After trapped air bubbles were removed, the chip was incubated in a humidity chamber at RT for one hour. To remove the cover slip, the chip was immersed into large volume of PBS buffer (50 ml), so that the slip would float away. The chip was then moved to a second PBS bath (>50 ml) and washed 3×5 min with shaking at RT. After removing extra liquid on the surface of the chip, about 100 μl of Cy3 or Cy5 conjugated streptavidin (PIERCE™, USA; 1:2000 to 1:4000 dilution) was added to the surface and covered by a hydrophobic plastic cover slip (GRACE BIO-LABS™, USA). The chip was incubated for greater than 30 min in the dark at RT. The chip was then washed as described above. To completely remove the liquid on the chip, the chip was spun to dryness at 1500-2000 rpm for 5-10 min at RT.
• 1. S. Fields, Y. Kohara, D. J. Lockhart, Proc. Natl. Acad. Sci. 96, 8825 (1999); A. Goffeau et al., Science 274, 563 (1996). • 2 P. Ross-Macdonald et al., Nature 402, 413 (1999); J. L., DeRisi, V. R. Iyer, P. O. Brown, Science 278, 680 (1997); E. A. Winzeler et al., Science 285, 901 (1999). P. Uetz et al., Nature 403, 623 (2000); T. Ito et al., Proc. Natl. Acad. Sci. USA. 97, 1143 (2000) • 3 H. Zhu, M. Snyder, Curr. Opin. Chem. Biol. 5, 40 (2001). • 4 M. R. Martzen et al., Science 286, 1153 (1999). • 5 H. Zhu et al., Nat. Genet. 26, 283 (2000). • 6 G. MacBeath, S. L. Schreiber, Science 289, 1760 (2000). • 7 A. Caveman, J. Cell Sci. 113, 3543 (2000). • 8 P. Arenkov et al., Anal. Biochem 278, 123 (2000). • 9 D. A. Mitchell, T. K. Marshall, R. J. Deschenes, Yeast 9, 715 (1993). The expression vector pEGH was created by inserting an RGS-HisX6 epitope tag between the GST gene and the polycloning site of pEG(KG). The yeast ORFs were cloned using the strategy described previously (5), except every step was done in a 96-well format. Plasmid DNAs confirmed by DNA sequencing were reintroduced into both yeast (Y258) and E. coli (DH5a). […] 0.1 mM calcium was present in buffers in all subsequent steps. The chip was washed three times with PBS at RT. Cy3-conjugated streptavidin (Jackson IR, USA) (1:5000 dilution) was added to the chip and incubated for 30 min at RT. After extensive washing, the chip was spun dry and scanned using a microarray scanner; the data was subsequently acquired with the GENEPIX™ array densitometry software (Axon, USA). • 12 S. S. Hook, A. R. Means, Annu. Rev. Pharmacol. Toxicol.41, 471 (2001). • 13 M. S. Cyert, R. Kunisawa, D. Kaim, J. Thorner, Proc. Natl. Acad. Sci. USA 88, 7376 (1991). • 14 D. A. Stirling, K. A. Welch, M. J. Stark, EMBO J. 13, 4329 (1994). • 15 F. Bohl, Kruse, EMBO J. 19, 5514 (2000); E. Bertrand et al., Mol. Cell 2, 437 (1998). • 16 D. C. Winter, E. Y. Choe, R. Li, Proc. Nat. Acad Sci. USA 96, 7288 (1999). • 17 C.

Another data set concerns PI(3,4)P2 liposomes. Nature of the data set: Yeast proteome chip probed with PI(3,4)P2 liposomes.
In data set [1] the test system is phosphatidylcholine (PC) liposomes. Briefly: Yeast proteome chip probed with PC liposomes. The essentials:
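Binding detected by fluorescent streptavidin (Cy3 or Cy5, >30 min in the dark at RT) recognizing biotin-DHPE (1% w/w) in PC liposomes, which carried 5% (w/w) of the named phosphoinositide unless PC-only. Liposomes, made by sonication in TBS, were applied to blocked chips for 1 h at RT, then washed in PBS.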

For another data set, the system named is PI(4,5)P2 liposomes. Nature of the data set: Yeast proteome chip probed with PI(4,5)P2 liposomes.

B1: DTR1: yeast GST-HisX6 fusion protein on proteome chip (protein, UniProt P38125 1-572, looked up)
Dityrosine transporter 1: MGSEPFQKKNLGLQINSQESGTTRSTFHSLEDLGDDVINESWDQVNQKRANIDHDVFHEHPDSSPSLSAQKAKTKEEEVAVKSSNSQSRDPSPDTQAHIPYTYFSKDQRLIIFGIIIFIGFLGPMSGNIYIPALPLLQREYDVSATTINATVSVFMAVFSVGPLFWGALADFGGRKFLYMVSLSLMLIVNILLAAVPVNIAALFVLRIFQAFASSSVISLGAGTVTDVVPPKHRGKAIAYFMMGPNMGPIIAPIVAGLILMKGNYWRWLFGFTSIMTGIALILVTALLPETLRCIVGNGDPKWGDKKDERENNESPFFEGNKISHRRLFPDIGIRKPVNNDAFFQENFPKPPKAGLTLYWKMIKCPPIIITSVSTALLFSSYYAFSVTFSYYLEHDYRFTMLEIGAAYVCPGVAMLLGSQSGGHLSDYLRSRWIKSHPKKKFPAEFRLLLNLIGILLTICGTIGYGWAIFFHYHFVVLLVFSALTAFGMTWCSNTSMTYLTELFPKRAAGTVAVSSFFRNVGAAISSAIILQLCNAMGIGWCFTGLGLCSSISLIGILYLLIFQRKYTAKEF
modifications: GST-His6 tag
notes: yeast GST-HisX6 fusion protein on proteome chip
With B1, the “PI(3, 4, 5)P3” value with PI(3,4,5)P3 liposomes was found to be 13.72. For the same molecule, in the data set with PI(4)P liposomes, the “PI(4)P” value is −4.79. Besides, the “PI(3)P” value with PI(3)P liposomes was 23.00. In the data set on PI(3,4)P2 liposomes, the “PI(3, 4)P2” value is reported as 2.83. The molecule also yielded a PC in data set [1] of 24.07. For the same molecule, the “PI(4, 5)P2” value with PI(4,5)P2 liposomes was determined as 3.05.

B2: PAU5: yeast GST-HisX6 fusion protein on proteome chip (protein, UniProt P43575 1-122, looked up)
Seripauperin-5: MVKLTSIAAGVAAIAAGASAAATTTLSQSDERVNLVELGVYVSDIRAHLAEYYSFQAAHPTETYPVEIAEAVFNYGDFTTMLTGIPADQVTRVITGVPWYSSRLKPAISSALSADGIYTIAN
modifications: GST-His6 fusion tag
notes: as for B1
In the case of B2, the “PI(4)P” value in the data set with PI(4)P liposomes turned out to be 31.35. In addition, in the data set on PI(3)P liposomes, the “PI(3)P” value is on record as −3.00. Also, in the data set on PI(3,4)P2 liposomes, the “PI(3, 4)P2” value is −5.02. The same molecule had a PC in data set [1] of 22.30. Moreover, the “PI(4, 5)P2” value in the data set on PI(4,5)P2 liposomes is recorded as −1.31.

B3: HIS7: yeast GST-HisX6 fusion protein on proteome chip (protein, UniProt P33734 1-552, looked up)
Imidazole glycerol phosphate …: MPVVHVIDVESGNLQSLTNAIEHLGYEVQLVKSPKDFNISGTSRLILPGVGNYGHFVDNLFNRGFEKPIREYIESGKPIMGICVGLQALFAGSVESPKSTGLNYIDFKLSRFDDSEKPVPEIGWNSCIPSENLFFGLDPYKRYYFVHSFAAILNSEKKKNLENDGWKIAKAKYGSEEFIAAVNKNNIFATQFHPEKSGKAGLNVIENFLKQQSPPIPNYSAEEKELLMNDYSNYGLTRRIIACLDVRTNDQGDLVVTKGDQYDVREKSDGKGVRNLGKPVQLAQKYYQQGADEVTFLNITSFRDCPLKDTPMLEVLKQAAKTVFVPLTVGGGIKDIVDVDGTKIPALEVASLYFRSGADKVSIGTDAVYAAEKYYELGNRGDGTSPIETISKAYGAQAVVISVDPKRVYVNSQADTKNKVFETEYPGPNGEKYCWYQCTIKGGRESRDLGVWELTRACEALGAGEILLNCIDKDGSNSGYDLELIEHVKDAVKIPVIASSGAGVPEHFEEAFLKTRADACLGAGMFHRGEFTVNDVKEYLLEHGLKVRMDEE
modifications: GST-His6 fusion tag
notes: as for B1
Turning to B3, the “PI(3, 4, 5)P3” value in the data set with PI(3,4,5)P3 liposomes was 78.07. Besides, the “PI(4)P” value in the data set on PI(4)P liposomes is reported as 226.45. The “PI(3)P” value in the data set on PI(3)P liposomes came out at 20.00. In data set [1], this molecule had a PC of 193.11. In addition, in the data set on PI(4,5)P2 liposomes, the “PI(4, 5)P2” value was found to be 18.73.

B4: ARG1: yeast GST-HisX6 fusion protein on proteome chip (protein, UniProt P22768 1-420, looked up)
Argininosuccinate synthase: MSKGKVCLAYSGGLDTSVILAWLLDQGYEVVAFMANVGQEEDFDAAKEKALKIGACKFVCVDCREDFVKDILFPAVQVNAVYEDVYLLGTSLARPVIAKAQIDVAKQEGCFAVSHGCTGKGNDQIRFELSFYALKPDVKCITPWRMPEFFERFAGRKDLLDYAAQKGIPVAQTKAKPWSTDENQAHISYEAGILEDPDTTPPKDMWKLIVDPMDAPDQPQDLTIDFERGLPVKLTYTDNKTSKEVSVTKPLDVFLAASNLARANGVGRIDIVEDRYINLKSRGCYEQAPLTVLRKAHVDLEGLTLDKEVRQLRDSFVTPNYSRLIYNGSYFTPECEYIRSMIQPSQNSVNGTVRVRLYKGNVIILGRSTKTEKLYDPTESSMDELTGFLPTDTTGFIAIQAIRIKKYGESKKTKGEELTL
modifications: GST-His6 tag
notes: as for B1
Take B4: the “PI(3, 4, 5)P3” value with PI(3,4,5)P3 liposomes is −6.08. Besides, the “PI(4)P” value in the data set with PI(4)P liposomes is listed as −6.31. Further, in the data set with PI(3)P liposomes, the “PI(3)P” value is 213.00. Moreover, in the data set on PI(3,4)P2 liposomes, the “PI(3, 4)P2” value is recorded as 1.73. For the same molecule, the PC in data set [1] came to 23.77. The “PI(4, 5)P2” value in the data set on PI(4,5)P2 liposomes was 3.48.

B5: ARO4: yeast GST-HisX6 fusion protein on proteome chip (protein, UniProt P32449 2-370, looked up)
Phospho-2-dehydro-3-deoxyhepto …: SESPMFAANGMPKVNQGAEEDVRILGYDPLASPALLQVQIPATPTSLETAKRGRREAIDIITGKDDRVLVIVGPCSIHDLEAAQEYALRLKKLSDELKGDLSIIMRAYLEKPRTTVGWKGLINDPDVNNTFNINKGLQSARQLFVNLTNIGLPIGSEMLDTISPQYLADLVSFGAIGARTTESQLHRELASGLSFPVGFKNGTDGTLNVAVDACQAAAHSHHFMGVTKHGVAAITTTKGNEHCFVILRGGKKGTNYDAKSVAEAKAQLPAGSNGLMIDYSHGNSNKDFRNQPKVNDVVCEQIANGENAITGVMIESNINEGNQGIPAEGKAGLKYGVSITDACIGWETTEDVLRKLAAAVRQRREVNKK
modifications: GST-His6 fusion tag
notes: as for B1
On to B5, for which, in the data set on PI(3,4,5)P3 liposomes, the “PI(3, 4, 5)P3” value is 29.25. The “PI(4)P” value in the data set on PI(4)P liposomes was found to be 42.24. In addition, the “PI(3)P” value in the data set with PI(3)P liposomes came to 87.50. Also, the “PI(3, 4)P2” value with PI(3,4)P2 liposomes amounted to 34.53. The molecule further had a PC in data set [1] of 28.17. Also, in the data set on PI(4,5)P2 liposomes, the “PI(4, 5)P2” value was 20.47.

B6: ERV1: yeast GST-HisX6 fusion protein on proteome chip (protein, UniProt P27882 1-189, looked up)
Mitochondrial FAD-linked …: MKAIDKMTDNPPQEGLSGRKIIYDEDGKPCRSCNTLLDFQYVTGKISNGLKNLSSNGKLAGTGALTGEASELMPGSRTYRKVDPPDVEQLGRSSWTLLHSVAASYPAQPTDQQKGEMKQFLNIFSHIYPCNWCAKDFEKYIRENAPQVESREELGRWMCEAHNKVNKKLRKPKFDCNFWEKRWKDGWDE
modifications: GST-His6 tag
notes: as for B1
For B6, the “PI(3, 4, 5)P3” value in the data set on PI(3,4,5)P3 liposomes turned out to be 1.35. Further, the “PI(4)P” value in the data set with PI(4)P liposomes is reported as −3.27. Further, the “PI(3)P” value in the data set with PI(3)P liposomes came out at 15.75. Also, the “PI(4, 5)P2” value in the data set with PI(4,5)P2 liposomes came out at 18.94.
